Molecular target: methanol dehydrogenase (MDH) of Bacillus brevis S1 strain (NCIMB No. 12524) (Bacillus brevis S1 strain)

Activation ratio (%) of methanol dehydrogenase activity (Δ OD 340 nm/min, reduction of NAD+): 250%
Substance: methanol dehydrogenase activator YqkG of Bacillus subtilis (product of the yqkG / amd gene)

Source: patent US6280972
